Results as given in patent publication US20240344138A1, “TARGETED THERAPIES IN CANCER” (Feng Biosciences, Inc, priority 2021, published 2024).

How the values were obtained:
MDSC functions = settings: pre-clinical models; cited from earlier work
[1] = tested on: stage III or IV of ovarian cancer; settings: ovarian cancer stage III or IV after initial surgery; bevacizumab added to carboplatin and paclitaxel versus without; cited from earlier work
[2] = tested on: metastatic colorectal cancer patients; assay: Retrospective analysis of anti-angiogenic therapy (bevacizumab) in metastatic colorectal cancer by TME phenotype; format: in vivo, human; settings: A and IS patients
Description: The analysis includes 60 colorectal cancer tumor samples.
To test if TME phenotypes correlate with clinical outcomes when patients are treated with an angiogenesis inhibitor, tumor stroma RNA gene signatures are analyzed from archival tissues collected from 60 colorectal cancer patients (30 left-sided, 30 right-sided) using an ANN classifier such as the TME Panel-1 classifier. The correlation between each TME phenotype is tested against clinical outcome data. In A and IS patients, the use of bevacizumab confers gains in comparison to patients classified to IA and ID TME phenotypes: in A and IS patients median PFS and OS shifts to 15 months and 39 months, respectively. Progression-free survival and OS data in IA and ID patients are consistent with historical values. Overall, the A and IS TME phenotypes correlate specifically with improved clinical outcomes with angiogenesis inhibitors and has a predictive effect with respect to PFS.

[3] = tested on: advanced solid tumors in colorectal, triple-negative breast cancer, gastric, and ovarian cancers; assay: Phase 2 open-label basket study of navicixizumab monotherapy or with paclitaxel or irinotecan, retrospective analysis by TME phenotype; format: in vivo, human; settings: combined A and IS groups
Description: A retrospective analysis of a signal-finding Phase 2 clinical trial is conducted. Patient samples from thirty patients in a phase 2, multicenter, open-label basket study of navicixizumab monotherapy or in combination with the chemotherapeutics paclitaxel or irinotecan in patients with advanced solid tumors in colorectal, triple-negative breast cancer, gastric, and ovarian cancers. Patients in the combined A and IS groups that received navicixizumab monotherapy have an ORR greater than 40%. Patients in the combined A and IS groups that receive navicixizumab and chemotherapy have an ORR greater than 50%.

[4] = tested on: colorectal cancer patients; assay: Clinical trial of navicixizumab and chemotherapy in colorectal cancer, outcome by TME phenotype; format: in vivo, human
Description: A clinical trial is run to show benefit of anti-angiogenesis therapy in CRC by identifying patients based on their stromal phenotypes. RNA gene signatures are analyzed from biopsy samples prior to treatment with navicixizumab and chemotherapy (such as paclitaxel, FOLFOX, FOLFIRI, etc.). The stromal phenotypes are correlated with ORR, PFS, and OS. The analysis includes 40 colorectal cancer patients with treated with navicizumab and chemotherapy in the first-line setting.

[5] = tested on: non-small cell lung cancer (NSCLC); settings: cited from earlier work
[6] = tested on: non-small cell lung cancer (NSCLC); assay: Retrospective ANN analysis of Phase 3 trial of tislelizumab with pemetrexed and a platinum agent; format: in vivo, human; settings: biomarker positive group (IA or IS)
Source text: A retrospective analysis of 100 RNA signatures from a Phase 3 clinical trial of non-small cell lung cancer (NSCLC) with the anti-PD-1 checkpoint inhibitor tislelizumab in combination with the chemotherapeutic agents pemetrexed and a platinum agent (cisplatin or carboplatin) is run using the ANN method. […] After the retrospective ANN analysis, the biomarker positive group (IA or IS) is shown to have a PFS of 15.0 months with the combination therapy of tislelizumab and chemotherapy.

CCCc1nn(C)c2c(=O)[nH]c(-c3cc(S(=O)(=O)N4CCN(C)CC4)ccc3OCC)nc12 [sildenafil]
effect on MDSC functions (MDSC functions): significantly inhibited the MDSC functions

bevacizumab
Progression-free survival [1]: 18 months
median OS [2]: 39 months
median PFS [2]: 15 months

carboplatin and paclitaxel
Progression-free survival [1]: 13 months

B1: navicixizumab (antibody, chains of the INN, looked up, V domains shown)
VH: QVQLVQSGAEVKKPGASVKISCKASGYSFTAYYIHWVKQAPGQGLEWIGYISNYNRATNYNQKFKGRVTFTTDTSTSTAYMELRSLRSDDTAVYYCARDYDYDVGMDYWGQGTLVTVSS
VL: DIVMTQSPDSLAVSLGERATISCRASESVDNYGISFMKWFQQKPGQPPKLLIYAASNQGSGVPDRFSGSGSGTDFTLTISSLQAEDVAVYYCQQSKEVPWTFGGGTKVEIK
VH2: QVQLVQSGAEVKKPGASVKVSCKASGYTFTNYWMHWVRQAPGQGLEWMGDINPSNGRTSYKEKFKRRVTLSVDKSSSTAYMELSSLRSEDTAVYFCTIHYDDKYYPLMDYWGQGTLVTVSS
VL2: B1 VL
notes: anti-VEGF/anti-DLL4 bispecific antibody
ORR [3]: greater than 40%

B2: navicixizumab and chemotherapy: anti-VEGF/anti-DLL4 bispecific antibody navicixizumab with chemotherapy (such as paclitaxel, FOLFOX, FOLFIRI, irinotecan) (antibody, chains of the INN, looked up, V domains shown)
VH: B1 VH
VL: B1 VL
VH2: B1 VH2
VL2: B1 VL
modifications: plus chemotherapy
ORR (%) ([4]; A (n = 10)): 90%
OS (months) ([4]; A (n = 10)): 26 months
PFS (months) ([4]; A (n = 10)): 15 months
ORR (%) ([4]; IA (n = 10)): 30%
OS (months) ([4]; IA (n = 10)): 15 months
PFS (months) ([4]; IA (n = 10)): 10 months
ORR (%) ([4]; ID (n = 10)): 45%
OS (months) ([4]; ID (n = 10)): 20 months
PFS (months) ([4]; ID (n = 10)): 13 months
ORR (%) ([4]; IS (n = 10)): 80%
OS (months) ([4]; IS (n = 10)): 25 months
PFS (months) ([4]; IS (n = 10)): 16 months
ORR [3]: greater than 50%

B3: tislelizumab plus chemotherapy: anti-PD-1 checkpoint inhibitor tislelizumab with pemetrexed and a platinum agent (cisplatin or carboplatin) (antibody, chains of the INN, looked up)
heavy: QVQLQESGPGLVKPSETLSLTCTVSGFSLTSYGVHWIRQPPGKGLEWIGVIYADGSTNYNPSLKSRVTISKDTSKNQVSLKLSSVTAADTAVYYCARAYGNYWYIDVWGQGTTVTVSSASTKGPSVFPLAPCSRSTSESTAALGCLVKDYFPEPVTVSWNSGALTSGVHTFPAVLQSSGLYSLSSVVTVPSSSLGTKTYTCNVDHKPSNTKVDKRVESKYGPPCPPCPAPPVAGGPSVFLFPPKPKDTLMISRTPEVTCVVVAVSQEDPEVQFNWYVDGVEVHNAKTKPREEQFNSTYRVVSVLTVVHQDWLNGKEYKCKVSNKGLPSSIEKTISKAKGQPREPQVYTLPPSQEEMTKNQVSLTCLVKGFYPSDIAVEWESNGQPENNYKTTPPVLDSDGSFFLYSKLTVDKSRWQEGNVFSCSVMHEALHNHYTQKSLSLSLG
light: DIVMTQSPDSLAVSLGERATINCKSSESVSNDVAWYQQKPGQPPKLLINYAFHRFTGVPDRFSGSGYGTDFTLTISSLQAEDVAVYYCHQAYSSPYTFGQGTKLEIKRTVAAPSVFIFPPSDEQLKSGTASVVCLLNNFYPREAKVQWKVDNALQSGNSQESVTEQDSKDSTYSLSSTLTLSKADYEKHKVYACEVTHQGLSSPVTKSFNRGEC
modifications: plus pemetrexed and platinum chemotherapy
hazard ratio (PFS) ([5]; tislelizumab plus chemotherapy versus chemotherapy alone): 0.645
median PFS ([5]; without stratification into stromal phenotypes): 9.7 mo
PFS [6]: 15.0 months
